Test results: paper PMC9438803 (Life Science Alliance, 2021)

Columns and labels:
[1] = biological target: RPA49/RPA34 heterodimer full length (Homo sapiens, UniProt Q9GZS1;O15446 1-419;1-510); assay: EMSA; EMSA: 100 fmol DNA, up to 50x protein, RT 30 min; buffer 1: 10 mM Tris pH 7.5, 50 mM NaCl, 1 mM MgCl2, 4% glycerol, 0.5 mM EDTA, 0.5 mM DTT; or buffer 2: 20 mM; details: protein: recombinant; tags: N-term 6xHis on RPA49; RPA34 untagged; copies: 1;1; label: 5'-Cy5 on strand 1; blunt
dock II minimal = dock II minimal (Homo sapiens, UniProt O95602 1081-1146); assay: EMSA; up to 50x protein excess; no major DNA binding; EMSA: 100 fmol DNA, up to 50x protein, RT 30 min; buffer 1: 10 mM Tris pH 7.5, 50 mM NaCl, 1 mM MgCl2, 4% glycerol, 0.5 mM EDTA, 0.5 mM DTT; or buffer 2: 20 mM; details: protein: recombinant; tags: C-term His-MBP; label: 5'-Cy5 on strand 1; blunt
[2] = biological target: T1, recombinant human Topoisomerase 2a lacking the unstructured C-terminal domain (1-1,217) (human, UniProt P11388 1-1217); assay: mass spectrometry of bands cut from the native PAGE; unshifted and shifted Top2a bands of the blue-native gel analysed by mass spectrometry; details: both partners purified
T1 construct: human Topoisomerase 2a residues 1-1,217; A legend on the cited structures calls Top2a a homodimer; also called Top2a ΔC; Top2aΔCTD; source: recombinant, purified
T1 sequence (P11388 1-1217): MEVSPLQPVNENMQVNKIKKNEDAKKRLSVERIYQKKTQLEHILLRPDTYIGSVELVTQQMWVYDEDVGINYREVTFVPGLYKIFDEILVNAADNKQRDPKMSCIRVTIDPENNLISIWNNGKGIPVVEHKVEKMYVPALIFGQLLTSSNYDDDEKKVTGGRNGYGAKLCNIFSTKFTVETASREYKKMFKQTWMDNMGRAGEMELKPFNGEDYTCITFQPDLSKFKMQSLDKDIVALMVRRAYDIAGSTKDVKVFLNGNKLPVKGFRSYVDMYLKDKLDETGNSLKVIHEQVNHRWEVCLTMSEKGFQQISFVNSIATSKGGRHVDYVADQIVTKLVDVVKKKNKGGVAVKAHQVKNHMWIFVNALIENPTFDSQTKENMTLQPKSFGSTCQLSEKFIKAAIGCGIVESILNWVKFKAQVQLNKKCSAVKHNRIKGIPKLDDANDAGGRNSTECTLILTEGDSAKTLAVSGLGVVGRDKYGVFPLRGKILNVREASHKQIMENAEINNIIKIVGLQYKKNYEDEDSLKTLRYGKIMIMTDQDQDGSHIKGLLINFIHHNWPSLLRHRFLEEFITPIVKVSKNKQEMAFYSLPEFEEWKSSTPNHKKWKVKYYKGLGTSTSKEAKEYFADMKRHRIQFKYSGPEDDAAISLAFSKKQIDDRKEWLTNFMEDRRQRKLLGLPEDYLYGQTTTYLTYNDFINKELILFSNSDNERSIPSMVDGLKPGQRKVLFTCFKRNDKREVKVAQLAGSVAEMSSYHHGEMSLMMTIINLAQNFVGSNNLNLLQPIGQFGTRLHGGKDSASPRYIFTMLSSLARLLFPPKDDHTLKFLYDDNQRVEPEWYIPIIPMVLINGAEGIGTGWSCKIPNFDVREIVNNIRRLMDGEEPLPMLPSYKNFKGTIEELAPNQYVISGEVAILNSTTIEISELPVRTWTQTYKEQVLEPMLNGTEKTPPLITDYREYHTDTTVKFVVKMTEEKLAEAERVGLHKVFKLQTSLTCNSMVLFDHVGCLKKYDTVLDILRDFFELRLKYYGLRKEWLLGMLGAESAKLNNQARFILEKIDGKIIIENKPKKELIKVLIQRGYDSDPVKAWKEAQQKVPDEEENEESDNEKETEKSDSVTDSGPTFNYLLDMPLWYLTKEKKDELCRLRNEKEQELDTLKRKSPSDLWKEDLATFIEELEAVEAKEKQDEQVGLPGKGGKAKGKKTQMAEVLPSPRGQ

RPA49/RPA34 heterodimer full length, sequence (Q9GZS1 whole entry, chain 1 of 2): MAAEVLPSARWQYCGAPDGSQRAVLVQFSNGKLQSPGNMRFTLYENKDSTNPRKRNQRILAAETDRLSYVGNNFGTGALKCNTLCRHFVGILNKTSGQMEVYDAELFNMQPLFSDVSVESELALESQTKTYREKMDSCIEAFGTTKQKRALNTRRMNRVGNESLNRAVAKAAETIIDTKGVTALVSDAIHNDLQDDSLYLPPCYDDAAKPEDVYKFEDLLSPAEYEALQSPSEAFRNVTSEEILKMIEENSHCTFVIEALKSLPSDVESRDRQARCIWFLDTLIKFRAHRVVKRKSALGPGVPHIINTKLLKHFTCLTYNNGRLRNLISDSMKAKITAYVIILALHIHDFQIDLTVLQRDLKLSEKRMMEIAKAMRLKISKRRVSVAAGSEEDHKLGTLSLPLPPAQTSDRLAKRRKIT
RPA49/RPA34 heterodimer full length, sequence (O15446 whole entry, chain 2 of 2): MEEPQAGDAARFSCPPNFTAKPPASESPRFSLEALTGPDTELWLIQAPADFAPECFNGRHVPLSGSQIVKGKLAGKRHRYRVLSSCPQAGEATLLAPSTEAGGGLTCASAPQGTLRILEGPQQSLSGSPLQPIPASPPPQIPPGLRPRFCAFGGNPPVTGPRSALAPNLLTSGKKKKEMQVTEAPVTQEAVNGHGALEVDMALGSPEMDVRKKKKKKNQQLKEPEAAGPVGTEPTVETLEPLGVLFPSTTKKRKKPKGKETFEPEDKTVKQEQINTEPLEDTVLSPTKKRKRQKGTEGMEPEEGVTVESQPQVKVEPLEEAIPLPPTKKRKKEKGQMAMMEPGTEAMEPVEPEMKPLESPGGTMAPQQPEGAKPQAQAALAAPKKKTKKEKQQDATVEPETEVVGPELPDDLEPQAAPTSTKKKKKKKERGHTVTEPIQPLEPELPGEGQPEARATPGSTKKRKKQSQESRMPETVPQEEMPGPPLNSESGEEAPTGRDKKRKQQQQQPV

Binder | binding result [1] | binding result (dock II minimal) | binding result [2]
EMSA-DNA 40 bp (dsDNA) DNA 1: CTGGAACAACACTCAACCCTATCTCGGTCTATTCTTTTGA DNA 2: TCAAAAGAATAGACCGAGATAGGGTTGAGTGTTGTTCCAG | binds | no binding | 
human dock II domain, full-length fragment (RPA1 1060-1155) with C-terminal His-MBP-tag (domain or fragment, UniProt O95602 1060-1155, looked up, human RPA1 residues 1060-1155, the dock II domain (HMG box-like foot insertion); The results call it MBP-dock II; the methods say that the His-MBP tag is C-terminal; also called full-length MBP-dock II; dock II-MBP fusion; source: E. coli BL21 (DE3) RIL, purified (Ni-NTA, Superdex 75); not shown: His, C-terminal, kept; MBP, C-terminal, kept) ADPKKALHHFRAIKKWQSKHPNTLLRRGAFLSYSQKIQEAVKALKLESENRNGRSPGTQEMLRMWYELDEESRRKYQKKAAACPDPSLSVWRPDIY |  |  | binds
